Experimental findings from patent publication US20190031759A1 (TECHNION RESEARCH AND DEVELOPMENT FOUNDATION, published 2019) are described below.

The term Kd denotes the equilibrium constant for the complex coming apart.

For the assay, the target named is recombinant single-chain HLA-A2-WT1Db126 complex (soluble, biotinylated scMHC-peptide complex) (human, site-specific biotinylation at the BirA recognition sequence at the carboxyl-terminus). Kind of assay: SPR (ProteOn XPR36), soluble HLA-A2/WT1Db126 complexes on chip-immobilized Fabs coupled through an anti-human Fab.

B1: F3 anti-HLA-A2/WT1Db126 TCR-like recombinant Fab antibody (Fab, V domains shown)
VH: EVQLVQSGAEVKKTGSSVKVSCKASGYTFTYRYLHWARQAPGQALEWMGWITPFNGNTNYAQKFQDRVTITRDRSMSTAYMELSSLRSEDTAMYYCASSAYDAFDIWGQGTMVTV
VL: LSSELTQDPAVSVALGQTVKITCQGDSLRIHYASWYQQKPGQAPVLVIYGKDNRPSGIPDRFSGSSSGTSASLTITGARAEDEADYYCNSRDNSGDHVLFGGGTKLTVV
notes: Soluble human Fab from a naive phage Fab library; also called F3 Fab; F3 TCRL
Take B1: the Kd was found to be 30 nM.

B2: F2 anti-HLA-A2/WT1Db126 TCR-like recombinant Fab antibody (Fab, V domains shown)
VH: QVQLVQSGGGLVKPGGSLRLSCAASGFTFSSYSMNWVRQAPGKGLEWVSSISSSSSYIYYADSVKGRFTISRDNAKNSLYLQMNSLRAEDTAVYYCARGDYYGLTFDPWGQGTLVTV
VL: LNFMLTQPHSVSESPGKTVTISCTRSSGSIASNYVQWYQQRPGSSPTTVIYEDNQRPSGVPDRFSGSIDSSSNSASLTISGLKTEDEADYYCQSYDSSNQNWVFGGGTKLTVLS
notes: Soluble human Fab from a naive phage Fab library, expressed in E. coli and purified on a TALON column; also called F2 Fab; F2 TCRL
On to B2, for which the Kd is 400 nM.
